From US20220249814A1, “METHODS AND DEVICES FOR TREATING A DISEASE WITH BIOTHERAPEUTICS” (PROGENITY, INC., priority 2018, published 2022)
Marks after values point to notes of the source that are not given here.

Columns and labels:
[1] = Example 6 dulaglutide plasma pharmacokinetics, ID via 2-nozzle device vs IV vs SC; format: in vivo, female Yorkshire pigs (Sus scrofa domesticus)
Source text: The study design is shown below in Table 35.
Blood samples were kept on wet ice until centrifugation. […] All samples were maintained chilled throughout processing.

[2] = baseline dose, Admin. SC (Table 17); cited from earlier work
[3] = Example 3 blood insulin pharmacokinetics after SC or intra-jejunal jet delivery; format: in vivo, Yorkshire female swine
Method: A total of 18 Yorkshire female swine in good health and weighing 60-70 kg each were included in this study. Swine were divided into two groups with 9 animals per group. […] A sham surgical laparotomy was performed. […] The jet delivery device was configured with the single nozzle in an axial orientation.
Swine were divided into two groups with 9 animals per group. […] In all 18 animals, a laparotomy procedure was performed to expose the abdominal cavity. Animals remained under anesthesia during the entire procedure for the PK/PD study.
For the laparotomy in group 02, a small segment of the jejunal mucosa and serosa was exposed by midline laparotomy and the jet delivery device was inserted through antimesenteric incision.
(§1) Blood samples were kept on wet ice until centrifugation and separation of plasma. […] Glucose was monitored every five (5) minutes during the study by portable glucose analyzer (StatStrip (SS) hospital glucose monitoring system (Nova Biomedical, Waltham, Mass.)). At each time point, approximate 0.1 mL of blood was drawn and immediately placed on a glucose monitoring test strip, and the whole blood glucose concentration was measured by the SS in triplicate.
The animals were anesthetized for the entire ECP.

[4] = Example 3 euglycemic clamp pharmacodynamics (blood glucose, dextrose infusion rate); format: in vivo, Yorkshire female swine
Method: as §1
A euglycemic clamp procedure (ECP) was employed to compare pharmacokinetics and pharmacodynamics of regular human Insulin (NOVOLIN® R) delivered subcutaneously (SC) in the neck versus intra-jejunally (IJ) by the jet delivery device in the small intestine. ECP was used to quantify the amount of glucose required to maintain normoglycemia after exogenous bolus of insulin. […] The animals were anesthetized for the entire ECP.

[5] = ID via ingestible device, 320 psig
[6] = IJ administration by jet delivery device (~40 U), Average of animals
[7] = IJ administration by jet delivery device (~40 U), animal 18P17
[8] = IJ administration by jet delivery device (~40 U), animal 18P22
[9] = IJ administration by jet delivery device (~40 U), animal 18P23
[10] = IJ administration by jet delivery device (~40 U), animal 18P25
[11] = IJ administration by jet delivery device (~40 U), animal 18P28
[12] = IJ administration by jet delivery device (~40 U), animal 18P33
[13] = IJ administration by jet delivery device (~40 U), animal 18P36
[14] = SC administration, animal 18P15
[15] = SC administration, animal 18P16
[16] = SC administration, animal 18P19
[17] = SC administration, animal 18P20
[18] = SC administration, animal 18P34
[19] = SC administration, animal 18P35

## dulaglutide
[1]; ID via 2-nozzle device 320 psig, 1.2 mg, swine plasma
  Tmax: 480 min
[1]; ID via 2-nozzle device 320 psig, 1.2 mg, one animal below detection limit excluded (N=4)
  (AUC)T0-T240 h ± SEM: 4355.86 ± 1094.57 ^a ng · hr/mL
[1]; [5]
  bioavailability relative to IV administration [(AUC)ID/IV*100%]: about 33%
  bioavailability relative to SC administration [(AUC)ID/SC*100%]: about 61%
[1]; ID via ingestible device, 320 psig, 1.2 mg, prior to exclusion of animal no. 8487, ±SEM
  AUCID (ng·hr/mL±SEM): 3890.00 ± 94.73 ng·h/mL
[1]; IV, 1.2 mg
  (AUC)T0-T240 h ± SEM: 16429.33 ± 600.93 ng·h/mL
[1]; SC, 1.2 mg
  (AUC)T0-T240 h ± SEM: 8869 ± 887.33 ng·h/mL
[1]; one animal in Group 1 (no. 8487; ID)
  plasma level of dulaglutide: below the limit of detection of the ELISA assay

## somatropin
[2]
  Bioavail.: 80.5%

## Novolin® R: regular human insulin (NOVOLIN® R)
[3]; AUC0-420 min
  AUC of blood insulin, SC vs IJ group: higher than that of the IJ administration group
[3]; [6]
  Cmax blood insulin: 77.40 uIU/mL
  Tmax blood insulin: 55.63 min
[3]; IJ administration by jet delivery device (~40 U), animal 18P14
  Cmax blood insulin: 96.77 uIU/mL
[3]; [7]
  Cmax blood insulin: 5.03 uIU/mL
  Tmax blood insulin: 50 min
[3]; [8]
  Cmax blood insulin: 7.96 uIU/mL
  Tmax blood insulin: 90 min
[3]; [9]
  Cmax blood insulin: 48.77 uIU/mL
  Tmax blood insulin: 40 min
[3]; [10]
  Cmax blood insulin: 40.93 uIU/mL
  Tmax blood insulin: 20 min
[3]; [11]
  Cmax blood insulin: 85.38 uIU/mL
  Tmax blood insulin: 40 min
[3]; [12]
  Cmax blood insulin: 207.96 uIU/mL
  Tmax blood insulin: 40 min
[3]; [13]
  Cmax blood insulin: 126.39 uIU/mL
  Tmax blood insulin: 90 min
[3]; [14]
  Cmax blood insulin: 451.00 uIU/mL
  Tmax blood insulin: 50 min
[3]; [15]
  Cmax blood insulin: 60.74 uIU/mL
  Tmax blood insulin: 180 min
[3]; [16]
  Cmax blood insulin: 354.00 uIU/mL
  Tmax blood insulin: 105 min
[3]; [17]
  Cmax blood insulin: 356.60 uIU/mL
  Tmax blood insulin: 30 min
[3]; SC administration, animal 18P21
  Cmax blood insulin: 65.71 uIU/mL
[3]; [18]
  Cmax blood insulin: 59.18 uIU/mL
  Tmax blood insulin: 120 min
[3]; [19]
  Cmax blood insulin: 73.34 uIU/mL
  Tmax blood insulin: 50 min
[3]; in vivo, sc
  maximum plasma concentration Cmax, SC vs IJ group: higher than that of the IJ administration group
[4]; first 70 minutes after administration
  mean dextrose infusion rate, IJ vs SC group: higher in the IJ administration group
[4]; from 75 minutes to 420 minutes post-administration
  mean dextrose infusion rate, IJ vs SC group: higher in the SC administration group

## glucagon
[2]
  Bioavail.: 100.0%

B1: concizumab (antibody, chains of the INN, looked up, V domains shown)
VH: EVQLVESGGGLVKPGGSLRLSCAASGFTFSNYAMSWVRQTPEKRLEWVATISRSGSYSYFPDSVQGRFTISRDNAKNSLYLQMNSLRAEDTAVYYCARLGGYDEGDAMDSWGQGTTVTVSS
VL: DIVMTQTPLSLSVTPGQPASISCKSSQSLLESDGKTYLNWYLQKPGQSPQLLIYLVSILDSGVPDRFSGSGSGTDFTLKISRVEAEDVGVYYCLQATHFPQTFGGGTKVEIK
[2]
  Bioavail.: 93.0%
